Experimental data published in patent publication EP4725964A1 (Jiangsu Mabwell Health Pharmaceutical R&D Co., Ltd., dated 2026).
Substitutions are numbered along the chain they refer to.

T1: Nectin-4 in human tissue sections (human, UniProt Q96NY8 32-510)
T1 construct: Endogenous Nectin-4 in formalin-fixed, paraffin-embedded human tissue sections (cell membrane and/or cytoplasm), as stained by immunohistochemistry; also called target protein Nectin-4; Nectin-4 in normal human tissues and tumor tissues
T1 sequence: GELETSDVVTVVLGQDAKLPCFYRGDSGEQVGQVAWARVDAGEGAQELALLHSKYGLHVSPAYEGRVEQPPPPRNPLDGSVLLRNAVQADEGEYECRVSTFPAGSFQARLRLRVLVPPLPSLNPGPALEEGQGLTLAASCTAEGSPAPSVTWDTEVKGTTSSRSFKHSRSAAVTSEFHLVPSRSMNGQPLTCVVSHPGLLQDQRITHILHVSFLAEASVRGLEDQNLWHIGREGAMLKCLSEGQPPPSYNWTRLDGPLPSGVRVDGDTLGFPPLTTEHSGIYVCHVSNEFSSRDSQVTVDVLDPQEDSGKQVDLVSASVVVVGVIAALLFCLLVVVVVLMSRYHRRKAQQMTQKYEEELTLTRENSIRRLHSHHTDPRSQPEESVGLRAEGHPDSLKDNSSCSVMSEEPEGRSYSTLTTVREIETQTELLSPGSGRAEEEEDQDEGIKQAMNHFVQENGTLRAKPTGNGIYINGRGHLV

T2: human Nectin-4 expressed by PC-3-Nectin-4 cells (human, UniProt Q96NY8 32-510)
T2 construct: Full-length human Nectin-4 gene (NCBI Gene ID 81607, 1533 bp) knocked into PC-3 cells; On intact cells in flow cytometry; in denatured cell lysate in Western blotting; also called Nectin-4-expressing cells; Nectin-4-positive cells
T2 sequence: T1 sequence

B1: Antibody R012 (antibody, V domains shown)
VH: SKSVEESGGRLVTPGTPLTLTCTVSGFSLSTYAMSWVRQAPGKGLEYIGIISGRGTTYYASWLKGRFTISKTSTTVDLKITSPTTEDTATYFCARDAGISDVYTGYFNLWGQGTLVTVSS
VL: QPVLAQLPSASAALGASAKLTCTLSSAHRTYTIAWYQQQQGEAPRYLMMLKSDGSYTKGTGVPDRFSGSSSGADRYLIISSVQAADEADYYCGADDSGGYVFGGGTQLTVTG
notes: Rabbit monoclonal antibody from a phage library; heavy chain constant region is rabbit IgG; also called Nectin-4 rabbit monoclonal antibody R012; rabbit antibody R012
B2: Antibody R036 (antibody, V domains shown)
VH: SQSVEESGGRLVTPGTPLTLTCTVSGFSLSSYAMSWVRQAPGKGLEYIGIIGGRGTTYYAIWAKGRFTISKTSTTVDLKITSPTTEDTATYFCARDAGTTYVGTTYVATGYFNLWGQGTLVTVSS
VL: B1 VL with A5T, L7P, R29K, M49I, K58R, A85D
notes: Rabbit monoclonal antibody from a phage library; heavy chain constant region is rabbit IgG; also called Nectin-4 rabbit monoclonal antibody R036; rabbit antibody R036
B3: Antibody MM11 (antibody, mouse IgG1, kappa, V domains shown)
VH: DVQLQESGPGLVKPSQSLSLTCSVTGYSITSNFYWNWIRQFPGNRLEWMGYISYDGSNNYNPSLKNRISISRDTSKNQFFLKLNSVTTEDTATYYCVRADYWGQGTLVTVSA
VL: DTVMTQTPLSLPVSLGDQASISCRSSQSLESSDGHAYLNWYLQKPGQSPQLLIYRVSNRFSGVLHRFSGSGSGTDFTLKISRVEAEDLGVYFCLQFTHVPFTFGSGTKLEIKR
notes: Mouse monoclonal antibody from a hybridoma; heavy chain constant region is mouse IgG1; also called Nectin-4 mouse monoclonal antibody MM11; mouse antibody MM11

Experiments:
[1] = biological target: recombinant human Nectin-4 protein (human) (UniProt Q96NY8); test: ELISA, antigen coated at 5 ug/ml, antibody 10 ng/ml
[2] = biological target: recombinant human Nectin-4 protein (human) (UniProt Q96NY8); test: ELISA, antigen coated at 5 ug/ml, antibody 100 ng/ml
[3] = biological target: T1, Nectin-4 in human tissue sections; test: IHC, normal human pancreas, antibody 1 ug/ml
[4] = biological target: recombinant human Nectin-4 protein (human) (UniProt Q96NY8); test: ELISA, antigen coated at 5 ug/ml, antibody 1000 ng/ml
[5] = biological target: recombinant human Nectin-4 protein (human) (UniProt Q96NY8); test: ELISA, antigen coated at 5 ug/ml, antibody 10000 ng/ml
[6] = biological target: T2, human Nectin-4 expressed by …; test: flow cytometry on PC-3-Nectin-4 cells, antibody 5 ug/ml
[7] = biological target: recombinant human Nectin-4 protein (human) (UniProt Q96NY8); test: ELISA, antigen coated at 5 ug/ml, antibody 0 ng/ml (blank control)
[8] = biological target: T1, Nectin-4 in human tissue sections; test: IHC, normal human skin, antibody 1 ug/ml
[9] = biological target: T1, Nectin-4 in human tissue sections; test: IHC, normal human salivary gland, 3 samples, antibody 1 ug/ml

Binder	OD detection value (OD450 nm-650 nm) [1]	OD detection value (OD450 nm-650 nm) [2]	binding result [3]	OD detection value (OD450 nm-650 nm) [4]	OD detection value (OD450 nm-650 nm) [5]	binding result [6]	OD detection value (OD450 nm-650 nm) [7]	binding result [8]	binding result [9]
B1	0.748	1.44	binds	1.56	1.51	binds	0.008	–	–
B2	0.73	1.48	–	1.64	1.63	binds	0.007	binds	–
B3	0.58	1.64	–	2.05	1.97	binds	0.008	–	binds
